Experimental data taken from publication PMC7614494.

Experiments:
Mouse saposin A (mouse) [1] = test: crystal structure; SapA-PC preparation (100 mM citrate pH 4.0, 150 mM NaCl) mixed with acid ceramidase; sitting drops at 293 K, 23.25% PEG 3350, 0.1 M Bis-Tris pH 5.6; only SapA found in the crystal; 3.17 Å
Mouse saposin A (mouse) [2] = test: SEC-MALS; SapA after incubation with DDM-solubilised phosphatidylcholine (PC:SapA 30:1); Superdex 200 Increase 10/300 GL, 100 mM citrate pH 4.0, 150 mM NaCl, room temperature; protein conjugate analysis of three regions of a heterogeneous peak

Mouse saposin A (natural protein)
stoichiometry N (Mouse saposin A (mouse) [1]): 4
stoichiometry N (Mouse saposin A (mouse) [2]): 3 to 4
